We go through 8 sequences from US5686592.

Common to all, as to assay: filter
The test system of data set [1] is human IgE (Homo sapiens), P01854-1.
Data set [2] concerns the target T1, mouse IgE (Mus musculus) (UniProt P06336).
T1 sequence: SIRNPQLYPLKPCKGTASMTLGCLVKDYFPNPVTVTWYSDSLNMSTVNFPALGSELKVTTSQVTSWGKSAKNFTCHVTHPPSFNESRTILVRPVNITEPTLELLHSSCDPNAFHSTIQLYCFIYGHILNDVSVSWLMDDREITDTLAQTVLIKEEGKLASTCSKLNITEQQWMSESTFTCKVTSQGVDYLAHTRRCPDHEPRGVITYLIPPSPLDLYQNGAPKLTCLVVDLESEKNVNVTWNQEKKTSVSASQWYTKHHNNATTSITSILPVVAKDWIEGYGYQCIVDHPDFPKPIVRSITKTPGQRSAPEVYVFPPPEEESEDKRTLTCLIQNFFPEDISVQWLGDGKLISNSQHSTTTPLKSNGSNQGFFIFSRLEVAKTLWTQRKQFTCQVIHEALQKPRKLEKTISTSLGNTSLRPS

The target of data set [3] is T2, rat IgE (Rattus norvegicus) (UniProt P01855).
T2 sequence: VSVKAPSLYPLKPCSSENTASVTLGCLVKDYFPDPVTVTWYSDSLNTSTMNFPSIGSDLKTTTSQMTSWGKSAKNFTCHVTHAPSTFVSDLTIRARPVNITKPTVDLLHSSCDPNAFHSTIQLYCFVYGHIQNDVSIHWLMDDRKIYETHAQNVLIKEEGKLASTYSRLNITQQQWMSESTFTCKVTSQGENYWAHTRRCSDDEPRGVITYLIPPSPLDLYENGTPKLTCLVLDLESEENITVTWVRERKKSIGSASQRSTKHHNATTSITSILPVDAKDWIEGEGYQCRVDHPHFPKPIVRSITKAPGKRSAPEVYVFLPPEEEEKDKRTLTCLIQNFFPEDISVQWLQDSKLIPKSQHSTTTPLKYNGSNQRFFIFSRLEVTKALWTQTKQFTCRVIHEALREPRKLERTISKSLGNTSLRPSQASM
Particulars: 2'-NH2 on all C and U; specificity control.

Data set [4] concerns human IgG (Homo sapiens). Particulars: specificity control.
The mark [5] stands for this setting: 2'-NH2 on all C and U, starting pool.
Setting [6] is: 2'-NH2 on all C and U, specificity control.

Chain of human IgE (Homo sapiens), P01854-1 (P01854 other isoform, or with tags, fused parts or gaps): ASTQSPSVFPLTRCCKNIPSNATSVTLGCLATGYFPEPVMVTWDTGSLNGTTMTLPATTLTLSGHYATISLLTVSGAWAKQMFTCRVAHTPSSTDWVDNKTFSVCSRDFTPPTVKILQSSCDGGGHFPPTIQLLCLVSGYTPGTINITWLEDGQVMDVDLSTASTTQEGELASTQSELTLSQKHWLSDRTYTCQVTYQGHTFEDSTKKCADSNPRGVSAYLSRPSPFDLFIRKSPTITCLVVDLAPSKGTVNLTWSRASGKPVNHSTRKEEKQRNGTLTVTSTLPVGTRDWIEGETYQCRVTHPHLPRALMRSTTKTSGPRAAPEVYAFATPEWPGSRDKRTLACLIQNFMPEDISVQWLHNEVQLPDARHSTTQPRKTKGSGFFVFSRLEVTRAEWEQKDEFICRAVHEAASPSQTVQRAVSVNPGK

Usually Kd stands for the free concentration of one partner at which half of the binding sites on the other are occupied at equilibrium, for simple one-to-one binding. Consider “CTACCTACGATCTGACTAGCNNNNNNNNNNNNNNNNNNNNNNNNNNNNNNNNNNNNNNNNGCTTACTCTCATGTAGTTCC [Round 15 human IgE DNA pool]”, for which the Kd in data set [1] (enriched pool, modified PBS, 1 mM Mg2+, 37 C) came out at 0.01 µM.

“GGGAGGACGAUGCGGNNNNNNNNNNNNNNNNNNNNNNNNNNNNNNNNNNNNNNNNNNNNNNNNNNNNNNNNNNNNCAGACGACUCGCCCGA [60N7 starting RNA pool]”: the equilibrium dissociation constant (Kd) in data set [1] (setting [5]) was greater than 50 µM.

In data set [1] (setting [5]), “GGGAGGACGAUGCGGNNNNNNNNNNNNNNNNNNNNNNNNNNNNNNNNNNNNNNNNCAGACGACUCGCCCGA [40N7 starting RNA pool]” had a Kd greater than 50 µM.

In the case of “CTACCTACGATCTGACTAGCNNNNNNNNNNNNNNNNNNNNNNNNNNNNNNNNNNNNNNNNGCTTACTCTCATGTAGTTCC [Round 15 mouse IgE DNA pool]”, the results for the dissociation constant Kd in data set [1] (mouse-IgE-enriched pool against human IgE) and in data set [2] (enriched pool) were greater than 50 µM and 0.02 µM, respectively.

Regarding “GGGAGGACGAUGCGGGUGUGAAUGGUGUUGUGAGG [IGEL1.2]”, the Kd in data set [3] and in data set [2] (setting [6]) was greater than 5 µM in each case.

For GGGAGGACGAUGCGGGUGUGGGGCG [IGEL2.2], the equilibrium dissociation constant (Kd) in data set [3] and in data set [2] (setting [6]) was greater than 5 µM in each case.

On to “CTACCTACGATCTGACTAGCNNNNNNNNNNNNNNNNNNNNNNNNNNNNNNNNNNNNNNNNGCTTACTCTCATGTAGTTCC [40NBHI starting DNA pool]”, for which the results for the Kd in data set [1] (starting pool) and in data set [2] (starting pool) were greater than 50 µM and greater than 1 µM, respectively.

Take “GGGGCACGTTTATCCGTCCCTCCTAGTGGCGTGCCCC [D17.4]”: the Kd in data set [4] and in data set [2] (specificity control) was greater than 10 µM throughout.
